Experimental data: article doi:10.1101/303537 (bioRxiv, 2018)
Where no end group is shown, it is not given here.

Tests used:
[1] = molecular target: Retinoblastoma binding protein 4 (RBBP4) (human, UniProt Q09028 1-425); assay: fluorescence polarisation
[2] = molecular target: Retinoblastoma binding protein 7 (RBBP7) (human, UniProt Q16576 1-425); assay: fluorescence polarisation
Chain of Retinoblastoma binding protein 7 (RBBP7) (Q16576 whole entry): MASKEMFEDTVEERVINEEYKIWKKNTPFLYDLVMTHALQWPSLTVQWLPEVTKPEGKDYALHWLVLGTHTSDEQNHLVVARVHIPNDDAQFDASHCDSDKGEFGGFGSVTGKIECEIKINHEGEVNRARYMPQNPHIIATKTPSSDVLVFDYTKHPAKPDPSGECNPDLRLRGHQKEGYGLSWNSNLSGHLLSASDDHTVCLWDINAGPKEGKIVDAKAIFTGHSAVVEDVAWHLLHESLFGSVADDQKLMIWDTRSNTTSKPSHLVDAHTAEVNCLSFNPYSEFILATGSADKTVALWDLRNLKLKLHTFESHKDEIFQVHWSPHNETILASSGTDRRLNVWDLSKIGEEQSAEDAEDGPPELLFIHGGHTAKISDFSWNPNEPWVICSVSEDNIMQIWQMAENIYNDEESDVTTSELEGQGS

Chain of Retinoblastoma binding protein 4 (RBBP4) (Q09028 whole entry): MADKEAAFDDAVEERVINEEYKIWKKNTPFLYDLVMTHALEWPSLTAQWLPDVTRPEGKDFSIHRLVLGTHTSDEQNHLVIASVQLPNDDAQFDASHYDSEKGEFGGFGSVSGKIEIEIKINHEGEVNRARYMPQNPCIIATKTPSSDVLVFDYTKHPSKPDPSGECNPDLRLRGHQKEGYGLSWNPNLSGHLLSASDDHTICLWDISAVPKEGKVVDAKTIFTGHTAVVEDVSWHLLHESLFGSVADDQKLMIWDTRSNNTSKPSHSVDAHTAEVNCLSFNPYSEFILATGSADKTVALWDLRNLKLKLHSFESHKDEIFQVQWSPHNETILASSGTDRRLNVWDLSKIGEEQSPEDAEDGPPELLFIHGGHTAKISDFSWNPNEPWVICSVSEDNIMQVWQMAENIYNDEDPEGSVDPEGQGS

Binder	Kd [1]	Kd [2]
LIAPIFLHRTLTYMSHR (also: FITC label (position not given here)) [FITC-labeled SUZ12 (105–121) peptide]	6400 ± 600 nM	–
FITC-labeled histone H4 (16–41) peptide (FITC label (position not given)) peptide: not shown	–	135 ± 12 nM

Other lines, results leading:

Kd [1]	Kd [2]	Binder
201 ± 102 nM	–	KSKKKSRKGRPRKTN (also: FITC label (position not given here)) [FITC-labeled PHF6 (157–171) peptide]
488 ± 245 nM	–	MSRRKQSNPRQIKRS (also: FITC label (position not given here)) [FITC-labeled FOG-1 (1–15) peptide]
